Measurements reported in patent US20160075746A1 (published 2016).
Primed or numbered codes have the meaning given here. [ ]: non-standard residue; d: D form. The star is where a group is joined. PE = proline (from (4R)-azidoproline) carrying a 1,2,3-triazole-linked chondroitin sulfate E (CS-E) disaccharide; Biotin = O=C1N[C@H]2[C@H](CS[C@H]2CCCCC(=O)*)N1; PEG12″ = not defined here; PEG12′ = PEG12: -

B1: glycopeptide 5 (peptide)
peptide: {Biotin-PEG12′}-PP[PE]PP[PE]PP[PE]PP[PE]PP[PE]PP[PE]PP[PE]PP[PE]PP[PE]PP[PE]PP[PE]PP[PE]-OMe
notes: All 12 CS-E disaccharides lie along one face of the PPII helix; also called agent 5; compound 5
B2: glycopeptide 4 (peptide)
peptide: {Biotin-PEG12″}-P[PE]P[PE]P[PE]P[PE]P[PE]P[PE]P[PE]P[PE]P[PE]P[PE]P[PE]P[PE]-OMe
notes: also called agent 4; (PPE)12
B3: glycopeptide 1 (peptide)
peptide: {Biotin-PEG12′}-[PE][PE][PE][PE][PE][PE][PE][PE][PE][PE][PE][PE]-OMe
notes: Immobilised through biotin on streptavidin in ELISA and SPR; also called agent 1; CS-E sulfated glycopeptide 1

Experiments:
[1] = biological target: nerve growth factor (NGF); experiment: ELISA, glycopeptide on streptavidin plate, NGF 0-60 nM, anti-NGF-HRP detection
[2] = biological target: nerve growth factor (NGF); experiment: SPR, glycopeptide immobilised, NGF analyte, two-state model
[3] = biological target: nerve growth factor (NGF); experiment: cell-based or functional assay
[4] = biological target: nerve growth factor (NGF); experiment: SPR, two-state model, comparison of KD values with glycopeptide 1
[5] = biological target: nerve growth factor (NGF); experiment: SPR (Biacore T100), glycopeptide immobilised on streptavidin CM5 chip, NGF 11-185 nM as analyte, two-state model, ka1
[6] = biological target: nerve growth factor (NGF); experiment: SPR, glycopeptide immobilised, NGF analyte, two-state model, kd1

Sequence of nerve growth factor (NGF) (chain, as listed by the source): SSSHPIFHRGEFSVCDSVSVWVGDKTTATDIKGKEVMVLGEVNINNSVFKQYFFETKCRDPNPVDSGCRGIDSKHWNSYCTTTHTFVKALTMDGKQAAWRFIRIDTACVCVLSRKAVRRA

Binder	fold increase in NGF binding as compared to 1 [1]	Kd [2]	NGF-induced TrkA phosphorylation (Western blot, pTrkA/TrkA ratio) in PC12 cells [3]	fold stronger binding to NGF than agent 1 (by KD) [4]	kon [5]	koff [6]	fold increase in NGF binding affinity in comparison to 1 [1]
B1	4.6 fold	0.137 µM	~40%	~18 fold	46500 M⁻¹ s⁻¹	0.0274 s⁻¹	–
B2	–	–	–	–	–	–	~2.6 fold
B3	–	2.5 µM	–	–	1950 M⁻¹ s⁻¹	0.0322 s⁻¹	–
